B1: 49G3.3 (antibody, V domains shown)
VH: QVTLKESGPVLVKPTETLTLTCTVSGFSLSNPRMGVSWIRQPPGKALEWLTHIFSNDEKSYSTSLKSRLTISKDTSKSQVVLSMTNMDPVDTATYYCVRVDTLNYHYYGMDVWGQGTTVTVSS
VL: DIQMTQSPSSLSASIGDRVTITCQASQGISNYLNWYQQKPGKAPKLLIYDASNLETGVPSRFSGSGSGTDFTFTISSLQPEDIATYYCHQYDDLPLTFGGGTKVEIRR
B2: 51E5.1 (antibody, V domains shown)
VH: QVQLQQWGAGLLKPSETLSLTCAVYGGSFSGYYWSWIRQPPGKGLEWIGELDHSGSINYNPSLKSRVTISVDTSKNQFSLKLTSVTAADTAVYYCARVLGSTLDYWGQGTLVTVSS
VL: DIQMTQSPSSLSASVGDRVTITCRASQDIRNDLGWYQQKPGKAPNRLIYAASSLQFGVPSRFSGSGSGTEFTLTISSLQPEDFATYYCLQHSSYPLTFGGGTRVEIKR

Columns and labels:
[1] = target: T1, human FGFR1c (human, UniProt P11362 22-822); assay: flow cytometry, transfected HEK293T; mock-transfected cells 648
T1 construct: Full length (GenBank NP-075598), expressed on transfected 293T cells; also called huFGFR1c; FGFR1c alone
Procedure: (§1) This solution was then added dropwise to 10 million HEK293T cells in 10 ml of media. 24 hours following transfection, the cells were washed and 50,000 cells were stained with each primary antibody, 50 μl of unpurified hybridoma supernatant was diluted 1:2 and used for staining cells. After a one hour incubation at 4° c., the cells were washed and an anti-Human Fc-specific secondary was added. Stained cells were then analyzed on a flow cytometer.

[2] = target: T2, cynomologous monkey FGFR1c/cynomologous monkey β-Klotho (co-transfected) (cynomologous monkey); assay: as above
T2 construct: whole, on cells; also called Cyno FGFR1c/Cyno β-Klotho
Procedure: as §1

[3] = target: T3, human FGFR1c/human β-Klotho complex (FGF21 receptor) (human, UniProt P11362 22-822); assay: as above
T3 construct: Both full-length proteins co-expressed on cells (HEK293T, CHO, L6); also called HuFGFR1c/Hu β-Klotho; huFGF21R
Procedure: as §1

[4] = target: T2, cynomologous monkey FGFR1c/cynomologous …; assay: flow cytometry, transfected HEK293T; mock-transfected cells 723
Procedure: as §1

| Binder | GeoMean [1] | GeoMean [2] | GeoMean [3] | GeoMean [4] |
| --- | --- | --- | --- | --- |
| B1 | 706 | 25900 | 17900 | – |
| B2 | – | – | – | 36500 |
